{"source": "paper PMC4802056", "target": "taxol-stabilized microtubules", "experiment": "co-sedimentation; microtubule spin-down from DT40 lysates (about 2 mg/ml) mixed with taxol-stabilized microtubules (0.2 mg/ml) or non-taxol tubulin, 30 °C 30 min, pelleted through a 1 M sucrose cushion in BRB80, western blotting", "data": [{"substance": "CEP215(ΔCM1)-TAP (domain or fragment)", "values": [{"measurement": "fold reduction in microtubule binding compared with CEP215-TAP and CEP215(ΔHBR)-TAP", "result": 3.4, "unit": "fold"}]}]}
